Values of other authors, collected in US7744870B1, “ST receptor binding compounds and methods of using the same” (Thomas Jefferson University, priority 1993, dated 2010).
Ends that are not written are not given here.

Assays:
guanylate cyclase = guanylate cyclase (Homo sapiens, UniProt P25092); conditions: relative to native ST; cited from earlier work
ST receptor = target: T1, ST receptor (Homo sapiens, UniProt P25092); conditions: reported in cited literature; cited from earlier work
T1 construct: a preparation of ST receptors (e.g. intestinal membranes from rat intestine, human intestine, T84 cells); from tissue; host or cells: human intestinal membranes
T1 sequence (P25092 24-1073): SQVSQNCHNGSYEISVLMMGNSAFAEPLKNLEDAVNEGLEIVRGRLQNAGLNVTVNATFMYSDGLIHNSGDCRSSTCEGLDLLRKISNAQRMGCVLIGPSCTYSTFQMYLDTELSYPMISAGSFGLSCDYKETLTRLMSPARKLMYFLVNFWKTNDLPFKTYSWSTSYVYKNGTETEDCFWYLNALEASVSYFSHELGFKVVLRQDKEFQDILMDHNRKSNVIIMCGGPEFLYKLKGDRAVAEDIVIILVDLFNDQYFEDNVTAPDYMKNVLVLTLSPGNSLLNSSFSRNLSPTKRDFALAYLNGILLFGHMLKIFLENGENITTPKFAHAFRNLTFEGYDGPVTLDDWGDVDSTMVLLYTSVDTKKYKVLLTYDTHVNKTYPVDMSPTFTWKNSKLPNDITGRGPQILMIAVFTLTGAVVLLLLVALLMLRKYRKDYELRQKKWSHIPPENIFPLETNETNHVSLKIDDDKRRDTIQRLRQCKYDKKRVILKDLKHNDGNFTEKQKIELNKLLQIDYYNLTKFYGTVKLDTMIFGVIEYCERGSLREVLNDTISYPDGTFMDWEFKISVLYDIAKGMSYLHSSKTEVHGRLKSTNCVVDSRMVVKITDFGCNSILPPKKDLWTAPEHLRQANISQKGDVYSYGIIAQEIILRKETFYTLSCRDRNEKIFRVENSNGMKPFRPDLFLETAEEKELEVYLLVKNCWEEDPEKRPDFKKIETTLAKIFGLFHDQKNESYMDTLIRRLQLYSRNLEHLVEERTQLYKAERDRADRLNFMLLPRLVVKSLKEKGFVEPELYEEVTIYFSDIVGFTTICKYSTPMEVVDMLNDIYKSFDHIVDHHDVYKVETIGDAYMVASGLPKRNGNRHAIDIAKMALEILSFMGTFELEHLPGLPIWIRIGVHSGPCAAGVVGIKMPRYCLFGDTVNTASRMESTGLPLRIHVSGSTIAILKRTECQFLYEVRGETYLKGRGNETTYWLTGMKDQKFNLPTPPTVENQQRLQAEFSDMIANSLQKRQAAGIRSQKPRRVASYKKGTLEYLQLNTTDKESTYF

guanylate cyclase, sequence (P25092 24-1073): as above

Substance	activates guanylate cyclase at a level less than native ST (guanylate cyclase)	binds to the ST receptor (ST receptor)
guanylin (PGTCEICAYAACTGC; ends and bridges not checked; cysteine pairing not given here; UniProt Q02747 101-115, looked up)	10- to 100 fold	binds to ST receptors
SEQ ID NO:47: 16 amino acid peptide derived from V. cholerae (IDCCICCNPACFGCLN; listed as Vibrio cholerae)		binds to the ST receptor
SEQ ID NO:48: 18 amino acid peptide derived from Y. enterocolitica (SSDWDCCDVCCNPACAGC; listed as Yersinia enterocolitica)		binds to the ST receptor
